Data from article PMC9367177 (iScience, 2022).

Target: T1, SARS-CoV-2 RBD (Wuhan-1) (SARS-CoV-2, Wuhan-1, UniProt P0DTC2)
T1 construct: source: Expi293, transfected, purified (Ni-NTA, SEC)
Experiment: SPR
Settings: both partners purified

Binder	Kd [nM]	koff [s⁻¹]	kon [M⁻¹ s⁻¹]
eCC6.30.9 (antibody, V domains shown, copies: 2 + 2) VH: QVQLVQSGAEVKKPGSSVKVSCKASGGIFSIYAITWVRQAPGQGLEWMGAIIPIIGTANYAQKFQGRVTITADKSTSTAYMELSSLRSEDTAVYYCARDFRYCSSTRCYFNFDPWGQGTLVTVSS VL: DIQMTQSPSSLSASVGDRVTITCRASQSISNYLNWYQQEAGKAPKLLIYTASSLQSGVPSRFSGSGSGTDFTLTISSLQPEDFATYYCQQSYSTPRTFGQGTKVDIK	0.0788	0.000202	2.57e+06
eCC6.33.5 (antibody, V domains shown, copies: 2 + 2) VH: QVQLVQSGAEVKKPGSSVKVSCKAVGGTFSSSAIYWVRQAPGQGLEWMGGIIPILDIANYAQKFQGRVTITADKSTSTAFMELSSLRSEDTAVYYCALRNQWDLVVYWGQGTLVTVSS VL: EIVLTQSPGTLSLSPGERATLSCHASQSVSSSYLAWYQQKPGQAPRLLIYGAESRATGIPDRFSGSGSGTDFTLTISRLEPEDFAVYYCQHYGSSTWTFGQGTKLEIK	17.3	0.00411	237000
eCC6.33.6 (antibody, V domains shown, copies: 2 + 2) VH: QVQLVQSGAEVKKPGSSVKVSCKAPGGTFSSSAISWVRQAPGQGLEWMGGIIPILDITTYAQKFQGRVTITADKSTSTAFMELSSLRSEDTAVYYCALRNQWDLLIYWGQGTLVTVSS VL: EIVLTQSPGTLSLSPGERATLSCRASQSVSSHYLAWYQQKPGQAPRLLIYGASSRYTGIPDRFSGSGSGTDFTLTISRLEPEDFAVYYCQHYGSSHWTFGQGTKLEIK	13.3	0.00167	126000
eCC6.33.9 (antibody, V domains shown, copies: 2 + 2) VH: QVQLVQSGAEVKKPGSSVKVSCKSSGGTFSSSAYSWVRQAPGQGLEWMGTIIPILDITNYAQKFQGRVTITADKSTSTAFMELSSLRSEDTAVYYCAQRNQWDLIVYWGQGTLVTVSS VL: EIVLTQSPGTLSLSPGERATLSCRASQWVSSSYIAWYQQKPGQAPRLLIYGAESRATGIPDRFSGSGSGTDFTLTISRLEPEDFAVYYCQHYGSSSWTFGQGTKLEIK	14.3	0.00218	153000
